Test results from patent US20220112276A1 (Janssen / Centocor, published 2022).

Tests used:
[1] = molecular target: T1, human pIgR extracellular domain (ECD) (human, UniProt P01833 19-638); test: SPR, VHH captured by anti-Fc, ECD analyte
T1 construct: Bought from R&D Systems (Cat 2717-PG-050); also called hpIgR ECD
Method: (§1) In an assay, two flow cells of the SPR were used, in which the flow cell 1 ran the buffer reference, and the flow cell 2 ran the analyte. […] The HBSP (GE) buffer was followed at a flow rate of 30 μL/min. Then, the VHHs were captured on the anti-human Fc protein surface at 0.5 ug/ml (˜200-300 RU) on the flow cell 2. The running buffer was changed to HBSP with 100 ug/ml BSA after the capture. Next, the pIgR extracellular domains were used as analyte and loaded in a series of concentrations, starting at 30 nM with further 3-fold dilution series.
(§2) The extracellular domains were prepared as follows: cynomolgus monkey and rat extracellular domains were produced and characterized in house; mouse and human pIgR extracellular domains were purchased from R&D Systems (Cat #2800-PG-050 & 2717-PG-050 respectively). The pIgR extracellular domains were injected from low to high concentration using a single-cycle kinetics method. The off-rate was monitored at 30 minutes after the last or highest concentration injection. The reference run was completed under the same conditions except that the pIgR injection was replaced by buffer injection.
(§3) The raw data were processed by subtracting two sets of reference data from the response data: (1) reference flow cell 1 subtracted from sample flow cell 2; and (2) buffer blank run subtracted from experimental run. The processed data at all concentrations for each VHH were globally fit to a 1:1 simple Langmuir binding model to extract estimates of the kinetic constants (kₒₙ, koff) and affinity constants (KD).

[2] = molecular target: T2, cynomolgus monkey pIgR extracellular domain (cynomolgus monkey, UniProt A0A2K5WMU9 19-638); test: SPR, VHH captured by anti-Fc, ECD analyte
T2 construct: extracellular domain
Method: as §1, §2, §3

T1 sequence (P01833 other isoform, or with tags, fused parts or gaps): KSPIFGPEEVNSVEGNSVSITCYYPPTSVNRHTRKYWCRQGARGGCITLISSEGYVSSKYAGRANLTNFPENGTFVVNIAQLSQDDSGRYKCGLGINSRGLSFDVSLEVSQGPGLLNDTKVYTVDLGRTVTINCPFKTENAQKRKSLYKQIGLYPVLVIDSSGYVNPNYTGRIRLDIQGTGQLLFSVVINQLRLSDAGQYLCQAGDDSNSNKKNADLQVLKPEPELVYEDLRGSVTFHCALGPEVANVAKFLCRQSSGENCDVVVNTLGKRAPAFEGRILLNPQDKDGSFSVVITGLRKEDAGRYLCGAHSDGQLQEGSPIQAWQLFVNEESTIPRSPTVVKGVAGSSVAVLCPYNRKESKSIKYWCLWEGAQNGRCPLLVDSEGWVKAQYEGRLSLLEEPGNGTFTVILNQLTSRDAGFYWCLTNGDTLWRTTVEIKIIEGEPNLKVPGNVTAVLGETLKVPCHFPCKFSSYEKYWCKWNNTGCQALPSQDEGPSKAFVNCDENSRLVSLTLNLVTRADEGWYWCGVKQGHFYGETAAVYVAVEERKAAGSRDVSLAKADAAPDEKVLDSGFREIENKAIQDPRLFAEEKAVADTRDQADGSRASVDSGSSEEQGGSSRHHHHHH
T2 sequence (A0A2K5WMU9 entry or part of it): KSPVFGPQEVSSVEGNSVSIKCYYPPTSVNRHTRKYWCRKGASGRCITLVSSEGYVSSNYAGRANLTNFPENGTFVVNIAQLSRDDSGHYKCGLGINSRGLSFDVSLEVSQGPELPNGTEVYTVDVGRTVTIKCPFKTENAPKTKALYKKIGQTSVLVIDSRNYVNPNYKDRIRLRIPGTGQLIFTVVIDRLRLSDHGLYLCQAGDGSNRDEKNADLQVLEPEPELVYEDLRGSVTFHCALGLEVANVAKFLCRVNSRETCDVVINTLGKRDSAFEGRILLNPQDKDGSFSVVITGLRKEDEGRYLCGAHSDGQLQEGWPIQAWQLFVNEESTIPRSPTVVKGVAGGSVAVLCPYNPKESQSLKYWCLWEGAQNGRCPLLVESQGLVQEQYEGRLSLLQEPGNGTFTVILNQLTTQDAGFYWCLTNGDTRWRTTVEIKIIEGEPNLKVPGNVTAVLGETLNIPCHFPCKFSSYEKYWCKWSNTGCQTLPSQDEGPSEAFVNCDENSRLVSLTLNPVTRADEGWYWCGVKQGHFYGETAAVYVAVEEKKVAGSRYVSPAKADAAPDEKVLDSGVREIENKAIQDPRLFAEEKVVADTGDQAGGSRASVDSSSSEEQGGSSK

Binder	Kd [1] [nM]	Kd [2] [nM]
01F01R2 VHH Mono-Fc (Fc fusion) QVQLVESGGGLVQAGGSLRLSCAASGRTFSSNPMGWFRQAPGKEREFVAAISWSGGGTYYADSVKGRFTISRDNAKNTVTLQMNSLKPEDTAVYYCASRDYSDPISLWVEDREYDYWGQGTQVTVSSSPAPELLGGPSVFLFPPKPKDTLMISRTPEVTCVVVDVSHEDPEVKFNWYVDGVEVHNAKTKPREEQYNSTYRVVSVLTVLHQDWLNGKEYKCKVSNKALPAPIEKTISKAKGQPREPQVYTKPPSREEMTKNQVSLSCLVKGFYPSDIAVEWESNGQPENNYKTTVPVLDSDGSFRLASYLTVDKSRWQQGNVFSCSVMHEALHNHYTQKSLSLSPGK	2.13	4.08
01A09R2 VHH Mono-Fc (Fc fusion) EVQLVESGGGLVQAGGSLRLSCAASGRTFSSNPMGWFRQAPGKEREFVAAISWSGGGTYYADSVKGRFTISRDNAKNTVTLQMNSLKPEDTAVYYCASRDYSDPISLWVEDREYDYWGQGTQVTVSSSPAPELLGGPSVFLFPPKPKDTLMISRTPEVTCVVVDVSHEDPEVKFNWYVDGVEVHNAKTKPREEQYNSTYRVVSVLTVLHQDWLNGKEYKCKVSNKALPAPIEKTISKAKGQPREPQVYTKPPSREEMTKNQVSLSCLVKGFYPSDIAVEWESNGQPENNYKTTVPVLDSDGSFRLASYLTVDKSRWQQGNVFSCSVMHEALHNHYTQKSLSLSPGK	2.14	4.02
01C05R3LS VHH Mono-Fc (Fc fusion) EVQLVESGGGLVQAGGSLRLSCAASGRTINTYVMGWFRQAPGKEREFVARIDWSGSSTDYADSVKGRFTISRDNAKNTVYLQMNSLKPEDTAVYYCAGSAYYSGYVTHRDFGSWGQGTLVTVSSSPAPELLGGPSVFLFPPKPKDTLMISRTPEVTCVVVDVSHEDPEVKFNWYVDGVEVHNAKTKPREEQYNSTYRVVSVLTVLHQDWLNGKEYKCKVSNKALPAPIEKTISKAKGQPREPQVYTKPPSREEMTKNQVSLSCLVKGFYPSDIAVEWESNGQPENNYKTTVPVLDSDGSFRLASYLTVDKSRWQQGNVFSCSVMHEALHNHYTQKSLSLSPGK	5.77	84.9
01D07R3LS VHH Mono-Fc (Fc fusion) QVQLVESGGGLVQAGGSLRLSCAASGRTINTYVMGWFRQAPGKEREFVARIDWSGSSTDYADSVKGRFTISRDNAKNTVYLQMNSLKPEDTAVYYCAGSAYYSGYVTHRDFGSWGQGTLVTVSSSPAPELLGGPSVFLFPPKPKDTLMISRTPEVTCVVVDVSHEDPEVKFNWYVDGVEVHNAKTKPREEQYNSTYRVVSVLTVLHQDWLNGKEYKCKVSNKALPAPIEKTISKAKGQPREPQVYTKPPSREEMTKNQVSLSCLVKGFYPSDIAVEWESNGQPENNYKTTVPVLDSDGSFRLASYLTVDKSRWQQGNVFSCSVMHEALHNHYTQKSLSLSPGK	9.78	103
01B10R3LS VHH Mono-Fc (Fc fusion) QVQLVESGGGLVQAGGSLRLSCAASGRTIYGYVMGWFRQAPGKEREFVARIDWSGSSTDYADSVKGRFTISRDNAKNTVYLQMNSLKPEDTAVYYCAGSAYYSGYVTHRDFGSWGQGTQVTVSSSPAPELLGGPSVFLFPPKPKDTLMISRTPEVTCVVVDVSHEDPEVKFNWYVDGVEVHNAKTKPREEQYNSTYRVVSVLTVLHQDWLNGKEYKCKVSNKALPAPIEKTISKAKGQPREPQVYTKPPSREEMTKNQVSLSCLVKGFYPSDIAVEWESNGQPENNYKTTVPVLDSDGSFRLASYLTVDKSRWQQGNVFSCSVMHEALHNHYTQKSLSLSPGK	38	192
01D08R3 VHH Mono-Fc (Fc fusion) QVQLVESGGGLVQAGDSLRLSCAASGRTSSLYNMGWFRQAPGQEREFVAAIHWGGGRTYYADSVKGRFTISRDNAKNTVYLQMNSLEPGDTANYYCAARRAPELLDDYKQKPEEIGAYHYWGQGTQVTVSSSPAPELLGGPSVFLFPPKPKDTLMISRTPEVTCVVVDVSHEDPEVKFNWYVDGVEVHNAKTKPREEQYNSTYRVVSVLTVLHQDWLNGKEYKCKVSNKALPAPIEKTISKAKGQPREPQVYTKPPSREEMTKNQVSLSCLVKGFYPSDIAVEWESNGQPENNYKTTVPVLDSDGSFRLASYLTVDKSRWQQGNVFSCSVMHEALHNHYTQKSLSLSPGK	0.195	448

Results, then the binder that gave them:

Kd [1] [nM]	Kd [2] [nM]	Binder
2.33	4.26	03B07R3 VHH Mono-Fc (Fc fusion) QVQLVESGGGLVQAGGSLRLSCAASGRTFSSNPMGWFRQAPGKEREFVAAISWSGGGTYYADSVKGRFTISRDNAKNTVTLQMNSLKPEDTAVYYCASRDYSDPISLWVEDREYDYWGQGTLVTVSSSPAPELLGGPSVFLFPPKPKDTLMISRTPEVTCVVVDVSHEDPEVKFNWYVDGVEVHNAKTKPREEQYNSTYRVVSVLTVLHQDWLNGKEYKCKVSNKALPAPIEKTISKAKGQPREPQVYTKPPSREEMTKNQVSLSCLVKGFYPSDIAVEWESNGQPENNYKTTVPVLDSDGSFRLASYLTVDKSRWQQGNVFSCSVMHEALHNHYTQKSLSLSPGK
2.14	4.59	03D05R3 VHH Mono-Fc (Fc fusion) EVQLVESGGGLVQAGGSLRLSCAASGRTFSSNPMGWFRQAPGKEREFVAAISWSGGGTYYADSVKGRFTISRDNAKNTVTLQMNSLKPEDTAVYYCASRDYSDPISLWVEGREYDYWGQGTLVTVSSSPAPELLGGPSVFLFPPKPKDTLMISRTPEVTCVVVDVSHEDPEVKFNWYVDGVEVHNAKTKPREEQYNSTYRVVSVLTVLHQDWLNGKEYKCKVSNKALPAPIEKTISKAKGQPREPQVYTKPPSREEMTKNQVSLSCLVKGFYPSDIAVEWESNGQPENNYKTTVPVLDSDGSFRLASYLTVDKSRWQQGNVFSCSVMHEALHNHYTQKSLSLSPGK
0.072	0.004	03D09R3 VHH Mono-Fc (Fc fusion) QVQLVESGGGLVQAGGSLRLSCAASGRTVSSVAMGWFRQAPGKEREFVATISWTGGSTYYADSVKGRFTISRDNAKNTAYLQMNSLKPEDTAVYYCAAGYPADPIALMTLRYEYDYWGQGTLVTVSSSPAPELLGGPSVFLFPPKPKDTLMISRTPEVTCVVVDVSHEDPEVKFNWYVDGVEVHNAKTKPREEQYNSTYRVVSVLTVLHQDWLNGKEYKCKVSNKALPAPIEKTISKAKGQPREPQVYTKPPSREEMTKNQVSLSCLVKGFYPSDIAVEWESNGQPENNYKTTVPVLDSDGSFRLASYLTVDKSRWQQGNVFSCSVMHEALHNHYTQKSLSLSPGK
1.39	23.2	01E10R3 VHH Mono-Fc (Fc fusion) QVQLVESGGGLVQSGGSLRLSCAASGRTFSDYAMGWFRQAPGKERELVAAITWNGGSTYYADSVKGRFTISRDNAKNTVDLQMNSLKPEDTAVYYCAADPLNSDSAGTYDYWGQGTLVTVSSSPAPELLGGPSVFLFPPKPKDTLMISRTPEVTCVVVDVSHEDPEVKFNWYVDGVEVHNAKTKPREEQYNSTYRVVSVLTVLHQDWLNGKEYKCKVSNKALPAPIEKTISKAKGQPREPQVYTKPPSREEMTKNQVSLSCLVKGFYPSDIAVEWESNGQPENNYKTTVPVLDSDGSFRLASYLTVDKSRWQQGNVFSCSVMHEALHNHYTQKSLSLSPGK
1.36	3.57	01F03R2 VHH Mono-Fc (Fc fusion) QVQLVESGGGLVQAGGSLRLSCAASGRTFSSYAMGWFRQAPGKEREFVAVISWSGGSTYYADSVKGRFTISRDNAKNTVYLQMNSLKPEDTAVYYCASGEQPGSNRPYIPEQPIEFMPTDYPSWYDYWGQGTQVTVSSSPAPELLGGPSVFLFPPKPKDTLMISRTPEVTCVVVDVSHEDPEVKFNWYVDGVEVHNAKTKPREEQYNSTYRVVSVLTVLHQDWLNGKEYKCKVSNKALPAPIEKTISKAKGQPREPQVYTKPPSREEMTKNQVSLSCLVKGFYPSDIAVEWESNGQPENNYKTTVPVLDSDGSFRLASYLTVDKSRWQQGNVFSCSVMHEALHNHYTQKSLSLSPGK
6.58	106	01G09R2 VHH Mono-Fc (Fc fusion) EVQLVESGGGLVQAGGSLRLSCAASGRTINTYVMGWFRQAPGKEREFVARIDWSGSSTDYADSAKGRFTISRDNAKNTVYLQMNSLKPEDTAVYYCAGSAYYSGYVTHRDFGSWGQGTLVTVSSSPAPELLGGPSVFLFPPKPKDTLMISRTPEVTCVVVDVSHEDPEVKFNWYVDGVEVHNAKTKPREEQYNSTYRVVSVLTVLHQDWLNGKEYKCKVSNKALPAPIEKTISKAKGQPREPQVYTKPPSREEMTKNQVSLSCLVKGFYPSDIAVEWESNGQPENNYKTTVPVLDSDGSFRLASYLTVDKSRWQQGNVFSCSVMHEALHNHYTQKSLSLSPGK
8.42	252	01H11R3LS VHH Mono-Fc (Fc fusion) QVQLVESGGGLVQAGGSLRLSCAASGRTINGYVMGWFRQAPGKEREFVARIDWSGSSTDYADSVKGRFTISRDNAKTTVYLQTNSLKPEDTAVYYCAGSAYYSGYVTHRDFGSWGQGTQVTVSSSPAPELLGGPSVFLFPPKPKDTLMISRTPEVTCVVVDVSHEDPEVKFNWYVDGVEVHNAKTKPREEQYNSTYRVVSVLTVLHQDWLNGKEYKCKVSNKALPAPIEKTISKAKGQPREPQVYTKPPSREEMTKNQVSLSCLVKGFYPSDIAVEWESNGQPENNYKTTVPVLDSDGSFRLASYLTVDKSRWQQGNVFSCSVMHEALHNHYTQKSLSLSPGK
